Measurements reported in patent publication US20110118131A1 (published 2011).

What was measured:
Ep-CAM = biological target: T1, Ep-CAM (UniProt P16422 24-265, limits assumed); test: Biacore, Fab periplasmic extract
T1 construct: Amine coupled to a CM5 chip in the Biacore assays
T1 sequence (looked up): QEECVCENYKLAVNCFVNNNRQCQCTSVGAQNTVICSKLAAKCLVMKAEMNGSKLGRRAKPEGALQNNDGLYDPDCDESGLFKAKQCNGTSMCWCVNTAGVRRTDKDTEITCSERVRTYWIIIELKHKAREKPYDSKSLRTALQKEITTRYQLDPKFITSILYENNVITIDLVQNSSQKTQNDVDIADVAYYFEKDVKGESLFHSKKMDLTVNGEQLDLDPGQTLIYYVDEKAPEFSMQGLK

IL-1β = IL-1β (UniProt P01584 117-269); test: Biacore, Fab periplasmic extract on IL-1β

B1: ING-1 light chain Y54H (Fab, V domains shown)
VH: QIQLVQSGPELKKPGETVKISCKASGYTFTKYGMNWVKQAPGKGLKWMGWINTYTEEPTYGDDFKGRFAFSLETSASTANLQINNLKSEDTATYFCARFGSAVDYWGQGTSVTVSS
VL: DIVMTQAAFSNPVTLGTSGSISCRSSKSLLHSNGITYLYWYLQKPGQSPQLLIHQMSNLASGVPDRFSSSGSGTDFTLRISRVEAEDVGVYYCAQNLELPRTFGGGTKLEMKR
notes: Fab, periplasmic extract
- binding result (Ep-CAM): no binding

B2: ING-1 light chain Y54N (Fab, V domains shown)
VH: QIQLVQSGPELKKPGETVKISCKASGYTFTKYGMNWVKQAPGKGLKWMGWINTYTEEPTYGDDFKGRFAFSLETSASTANLQINNLKSEDTATYFCARFGSAVDYWGQGTSVTVSS
VL: DIVMTQAAFSNPVTLGTSGSISCRSSKSLLHSNGITYLYWYLQKPGQSPQLLINQMSNLASGVPDRFSSSGSGTDFTLRISRVEAEDVGVYYCAQNLELPRTFGGGTKLEMKR
notes: Fab, periplasmic extract
- binding result (Ep-CAM): no binding

B3: ING-1 light chain Y54S (Fab, V domains shown)
VH: QIQLVQSGPELKKPGETVKISCKASGYTFTKYGMNWVKQAPGKGLKWMGWINTYTEEPTYGDDFKGRFAFSLETSASTANLQINNLKSEDTATYFCARFGSAVDYWGQGTSVTVSS
VL: DIVMTQAAFSNPVTLGTSGSISCRSSKSLLHSNGITYLYWYLQKPGQSPQLLISQMSNLASGVPDRFSSSGSGTDFTLRISRVEAEDVGVYYCAQNLELPRTFGGGTKLEMKR
notes: Fab, periplasmic extract
- fold difference in affinity vs parental ING-1 (Ep-CAM): 0.9 fold

B4: ING-1 light chain Y54R (Fab, V domains shown)
VH: QIQLVQSGPELKKPGETVKISCKASGYTFTKYGMNWVKQAPGKGLKWMGWINTYTEEPTYGDDFKGRFAFSLETSASTANLQINNLKSEDTATYFCARFGSAVDYWGQGTSVTVSS
VL: DIVMTQAAFSNPVTLGTSGSISCRSSKSLLHSNGITYLYWYLQKPGQSPQLLIRQMSNLASGVPDRFSSSGSGTDFTLRISRVEAEDVGVYYCAQNLELPRTFGGGTKLEMKR
notes: Fab, periplasmic extract
- binding result (Ep-CAM): no binding

B5: XPA23 light chain S53T (Fab, V domains shown)
VH: EVQLLESGGGLVQPGGSLRLSCAASGFTFSKYFMFWVRQAPGKGLEWVSVISPSGGMTRYADSVKGRFTISRDNSKNTLYLQMNSLRAEDTAVYYCARVGYGGNSDYWGQGTLVTVSS
VL: DIQMTQSPSSVSASVGDRLTIICRASQDINRWLAWYQQTPGNAPKLLIHSATTLQSGVPSRFSGSGSGTDFTLTINSLQPEDFATYYCQQADSFPLTFGGGTKVEIK
notes: Single light chain substitution; Fab in periplasmic extract; also called C5A (XPA23) S53T
- fold difference in affinity vs original (IL-1β): 0.95 fold

B6: XPA23 light chain A91P (Fab, V domains shown)
VH: EVQLLESGGGLVQPGGSLRLSCAASGFTFSKYFMFWVRQAPGKGLEWVSVISPSGGMTRYADSVKGRFTISRDNSKNTLYLQMNSLRAEDTAVYYCARVGYGGNSDYWGQGTLVTVSS
VL: DIQMTQSPSSVSASVGDRLTIICRASQDINRWLAWYQQTPGNAPKLLIHSATSLQSGVPSRFSGSGSGTDFTLTINSLQPEDFATYYCQQPDSFPLTFGGGTKVEIK
notes: Single light chain substitution; Fab in periplasmic extract; also called C5A (XPA23) A91P
- binding result (IL-1β): no binding

B7: XPA23 light chain D92G (Fab, V domains shown)
VH: EVQLLESGGGLVQPGGSLRLSCAASGFTFSKYFMFWVRQAPGKGLEWVSVISPSGGMTRYADSVKGRFTISRDNSKNTLYLQMNSLRAEDTAVYYCARVGYGGNSDYWGQGTLVTVSS
VL: DIQMTQSPSSVSASVGDRLTIICRASQDINRWLAWYQQTPGNAPKLLIHSATSLQSGVPSRFSGSGSGTDFTLTINSLQPEDFATYYCQQAGSFPLTFGGGTKVEIK
notes: Single light chain substitution; Fab in periplasmic extract; also called C5A (XPA23) D92G
- fold difference in affinity vs original (IL-1β): 0.26 fold

B8: XPA23 light chain D92L (Fab, V domains shown)
VH: EVQLLESGGGLVQPGGSLRLSCAASGFTFSKYFMFWVRQAPGKGLEWVSVISPSGGMTRYADSVKGRFTISRDNSKNTLYLQMNSLRAEDTAVYYCARVGYGGNSDYWGQGTLVTVSS
VL: DIQMTQSPSSVSASVGDRLTIICRASQDINRWLAWYQQTPGNAPKLLIHSATSLQSGVPSRFSGSGSGTDFTLTINSLQPEDFATYYCQQALSFPLTFGGGTKVEIK
notes: Single light chain substitution; Fab in periplasmic extract; also called C5A (XPA23) D92L
- fold difference in affinity vs original (IL-1β): 0.14 fold

B9: XPA23 light chain A91I (Fab, V domains shown)
VH: EVQLLESGGGLVQPGGSLRLSCAASGFTFSKYFMFWVRQAPGKGLEWVSVISPSGGMTRYADSVKGRFTISRDNSKNTLYLQMNSLRAEDTAVYYCARVGYGGNSDYWGQGTLVTVSS
VL: DIQMTQSPSSVSASVGDRLTIICRASQDINRWLAWYQQTPGNAPKLLIHSATSLQSGVPSRFSGSGSGTDFTLTINSLQPEDFATYYCQQIDSFPLTFGGGTKVEIK
notes: Single light chain substitution; Fab in periplasmic extract; also called C5A (XPA23) A91I
- binding result (IL-1β): no binding

B10: XPA23 light chain A91L (Fab, V domains shown)
VH: EVQLLESGGGLVQPGGSLRLSCAASGFTFSKYFMFWVRQAPGKGLEWVSVISPSGGMTRYADSVKGRFTISRDNSKNTLYLQMNSLRAEDTAVYYCARVGYGGNSDYWGQGTLVTVSS
VL: DIQMTQSPSSVSASVGDRLTIICRASQDINRWLAWYQQTPGNAPKLLIHSATSLQSGVPSRFSGSGSGTDFTLTINSLQPEDFATYYCQQLDSFPLTFGGGTKVEIK
notes: Single light chain substitution; Fab in periplasmic extract; also called C5A (XPA23) A91L
- fold difference in affinity vs original (IL-1β): 0.39 fold

B11: XPA23 light chain D92I (Fab, V domains shown)
VH: EVQLLESGGGLVQPGGSLRLSCAASGFTFSKYFMFWVRQAPGKGLEWVSVISPSGGMTRYADSVKGRFTISRDNSKNTLYLQMNSLRAEDTAVYYCARVGYGGNSDYWGQGTLVTVSS
VL: DIQMTQSPSSVSASVGDRLTIICRASQDINRWLAWYQQTPGNAPKLLIHSATSLQSGVPSRFSGSGSGTDFTLTINSLQPEDFATYYCQQAISFPLTFGGGTKVEIK
notes: Single light chain substitution; Fab in periplasmic extract; also called C5A (XPA23) D92I
- fold difference in affinity vs original (IL-1β): 0.33 fold

B12: XPA23 light chain A91T (Fab, V domains shown)
VH: EVQLLESGGGLVQPGGSLRLSCAASGFTFSKYFMFWVRQAPGKGLEWVSVISPSGGMTRYADSVKGRFTISRDNSKNTLYLQMNSLRAEDTAVYYCARVGYGGNSDYWGQGTLVTVSS
VL: DIQMTQSPSSVSASVGDRLTIICRASQDINRWLAWYQQTPGNAPKLLIHSATSLQSGVPSRFSGSGSGTDFTLTINSLQPEDFATYYCQQTDSFPLTFGGGTKVEIK
notes: Single light chain substitution; Fab in periplasmic extract; also called C5A (XPA23) A91T
- fold difference in affinity vs original (IL-1β): 0.67 fold

B13: XPA23 light chain D92A (Fab, V domains shown)
VH: EVQLLESGGGLVQPGGSLRLSCAASGFTFSKYFMFWVRQAPGKGLEWVSVISPSGGMTRYADSVKGRFTISRDNSKNTLYLQMNSLRAEDTAVYYCARVGYGGNSDYWGQGTLVTVSS
VL: DIQMTQSPSSVSASVGDRLTIICRASQDINRWLAWYQQTPGNAPKLLIHSATSLQSGVPSRFSGSGSGTDFTLTINSLQPEDFATYYCQQAASFPLTFGGGTKVEIK
notes: Single light chain substitution; Fab in periplasmic extract; also called C5A (XPA23) D92A
- fold difference in affinity vs original (IL-1β): 0.4 fold

B14: XPA23 light chain A91V (Fab, V domains shown)
VH: EVQLLESGGGLVQPGGSLRLSCAASGFTFSKYFMFWVRQAPGKGLEWVSVISPSGGMTRYADSVKGRFTISRDNSKNTLYLQMNSLRAEDTAVYYCARVGYGGNSDYWGQGTLVTVSS
VL: DIQMTQSPSSVSASVGDRLTIICRASQDINRWLAWYQQTPGNAPKLLIHSATSLQSGVPSRFSGSGSGTDFTLTINSLQPEDFATYYCQQVDSFPLTFGGGTKVEIK
notes: Single light chain substitution; Fab in periplasmic extract; also called C5A (XPA23) A91V
- fold difference in affinity vs original (IL-1β): 0.51 fold

B15: XPA23 light chain A91G (Fab, V domains shown)
VH: EVQLLESGGGLVQPGGSLRLSCAASGFTFSKYFMFWVRQAPGKGLEWVSVISPSGGMTRYADSVKGRFTISRDNSKNTLYLQMNSLRAEDTAVYYCARVGYGGNSDYWGQGTLVTVSS
VL: DIQMTQSPSSVSASVGDRLTIICRASQDINRWLAWYQQTPGNAPKLLIHSATSLQSGVPSRFSGSGSGTDFTLTINSLQPEDFATYYCQQGDSFPLTFGGGTKVEIK
notes: Single light chain substitution; Fab in periplasmic extract; also called C5A (XPA23) A91G
- binding result (IL-1β): no binding
